Patent US20230310634A1 (IMMUNEXT, published 2023)

T1: human VISTA (human, UniProt Q9H7M9 33-194, limits assumed)
T1 sequence: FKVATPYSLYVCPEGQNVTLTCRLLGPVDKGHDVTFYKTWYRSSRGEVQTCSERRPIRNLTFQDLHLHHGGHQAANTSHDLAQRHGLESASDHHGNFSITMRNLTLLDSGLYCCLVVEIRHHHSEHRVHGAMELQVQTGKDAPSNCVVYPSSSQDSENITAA

T2: hIX50 (human VISTA ECD) (human, UniProt Q9H7M9 33-194, biotinylated in the pH ELISA (sites not given); not biotinylated when coated on the plate)
T2 construct: also called soluble VISTA; biotinylated hIX50
T2 sequence: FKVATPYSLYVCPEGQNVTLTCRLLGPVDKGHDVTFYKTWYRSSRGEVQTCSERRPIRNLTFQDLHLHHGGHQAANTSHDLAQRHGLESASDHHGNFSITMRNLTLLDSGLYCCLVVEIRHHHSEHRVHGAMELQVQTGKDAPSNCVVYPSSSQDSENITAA

B1: VSTB66 (antibody, V domains shown)
VH: QVQLVQSGAEVKKPGASVKVSCKASGYPFTGYFMHWVRQAPGQGLEWMGRINPYNGGTVYNQNFNDRVTMTRDTSTSTVYMELSSLRSEDTAVYYCARWTFDGLFMDYWGQGTTVTVSS
VL: DVVMTQSPLSLPVTLGQPASISCRASENVDKYGISFMNWFQQRPGQSPRRLIYATSNQGSGVPDRFSGSGSGTDFTLKISRVEAEDVGVYYCQQSKEDPYTFGQGTKLEIK
B2: VSTB103 (antibody, V domains shown)
VH: EVQLVQSGAEVKKPGESLKISCKGSGYSFTSYWIGWVRQMPGKGLEWMGIIYPGDSDTRYSPSFQGQVTISADKSISTAYLQWSSLKASDTAMYYCARDDALYGGYYLDYWGQGTLVTVSS
VL: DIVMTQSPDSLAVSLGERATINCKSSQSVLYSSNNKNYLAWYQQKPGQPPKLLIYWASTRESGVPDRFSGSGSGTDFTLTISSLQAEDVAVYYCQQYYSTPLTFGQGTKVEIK
B3: VSTB56 (antibody, V domains shown)
VH: QVQLVQSGAEVKKPGASVKVSCKASGYTFTSYWLHWVRQAPGQGLEWMGYIIPNTLHTDYNQKFKDRVTMTRDTSTSTVYMELSSLRSEDTAVYYCARLDGDYDYALDYWGQGTLVTVSS
VL: DIVMTQTPLSLSVTPGQPASISCRASESVEYYGTSFMQWYLQKPGQPPQLLIYTASNVESGVPDRFSGSGSGTDFTLKISRVEAEDVGVYYCQQSRKVPYTFGQGTKLEIK
B4: INX200 (antibody, V domains shown)
VH: QVQLVQSGAEVKKPGASVKVSCKASGYTFANYLIGWVRQAPGQRLEWMGDIYPGGGFISYNEKFKGRVTITRDTSASTAYMELSSLRSEDTAVYYCARRFDYGGYFFDYWGQGTLVTVSS
VL: DIVMTQSPLSLPVTPGEPASISCRSSQSIVHSNGNIYLEWYLQKPGQSPQLLIYKVSNRFSGVPDRFSGSGSGTDFTLKISRVEAEDVGVYYCFQGSHVPWTFGQGTKLEIK
modifications: Alexa Fluor 488 label in the flow-cytometry results (p-1139); unlabelled in the ELISAs
B5: VSTB92 (antibody, V domains shown)
VH: QVQLVQSGAEVKKPGASVKVSCKASGYTFANYLIGWVRQAPGQRLEWMGDIYPGGGFISYNEKFKGRVTITRDTSASTAYMELSSLRSEDTAVYYCARRFDYGGYFFDYWGQGTLVTVSS
VL: DIVMTQSPLSLPVTPGEPASISCRSSQSIVHSNGNIYLEWYLQKPGQSPQLLIYKVSNRFSGVPDRFSGSGSGTDFTLKISRVEAEDVGVYYCFQGSHVPWTFGQGTKLEIK
B6: INX200A (other)
VH: QVQLVQSGAEVKKPGASVKVSCKASGYTFANYLIGWVRQAPGQRLEWMGDIYPGGGFISYNEKFKGRVTITRDTSASTAYMELSSLRSEDTAVYYCARRFDYGGYFFDYWGQGTLVTVSS
VL: DIVMTQSPLSLPVTPGEPASISCRSSQSIVHSNGNIYLEWYLQKPGQSPQLLIYKVSNRFSGVPDRFSGSGSGTDFTLKISRVEAEDVGVYYCFQGSHVPWTFGQGTKLEIK
modifications: Linker/payload A (esterase sensitive linker with dexamethasone) on the reduced interchain disulfide cysteines, DAR about 8; these cysteines lie in the constant regions, which are not given here.

Assays:
human VISTA = molecular target: T1, human VISTA; experiment: SPR on a ProteOn instrument; format of antibody and antigen not stated
hIX50 (human VISTA ECD) [1] = molecular target: T2, hIX50 (human VISTA ECD); experiment: ELISA: INX200 coated at 1 ug/mL, biotinylated hIX50 titrated at pH 7.5, streptavidin-HRP/TMB; the concentration is that of hIX50
hIX50 (human VISTA ECD) [2] = molecular target: T2, hIX50 (human VISTA ECD); experiment: ELISA: hIX50 coated at 1 ug/mL, antibody titrated, mouse anti-human kappa-HRP/TMB, OD450
hIX50 (human VISTA ECD) [3] = molecular target: T2, hIX50 (human VISTA ECD); experiment: ELISA: hIX50 coated at 1 ug/mL, conjugate titrated, mouse anti-human kappa-HRP/TMB, OD450

| Binder | Kd (human VISTA) | further results |
| --- | --- | --- |
| B1 | 80 pM |  |
| B2 | 640 pM |  |
| B3 | 20 pM |  |
| B4 |  | EC50 (read off the curve) (hIX50 (human VISTA ECD) [1]): ~0.7 ng/mL; EC50 (read off the curve) (hIX50 (human VISTA ECD) [2]): ~8 ng/mL |
| B5 | 90 pM |  |
| B6 |  | EC50 (read off the curve) (hIX50 (human VISTA ECD) [3]): ~10 ng/mL |
